In test [1] the target is Antithrombin III (plasma purified human AT-III), in complex with unfractionated full-length heparin (human) (UniProt P01008). Description: inhibition of FIXa by AT-III/UFH, residual activity on Mesyl-D-CHG-Gly-Arg-AMC.
Test [2] addresses plasma purified human AT-III (antithrombin III) in complex with unfractionated heparin (human) (UniProt P01008). Description: residual FIXa activity on Mesyl-D-CHG-Gly-Arg-AMC after timed incubation with AT-III/UFH (0-500 nM AT-III, 1 uM UFH); kapp from K0.5.

In test [1], “BeneFIX Coagulation FIX (T148A), activated (FIXa) (from UniProt P00740 47-191; P00740 227-461) (enzyme)” had a kapp (second-order rate constant for inhibition) of 1.6e+07 M⁻¹ s⁻¹. Same read-out and setting: as for “Catalyst Biosciences WT FIXa (from UniProt P00740 47-191; P00740 227-461) (enzyme)”, the figure is 2.4e+07 M⁻¹ s⁻¹. Take “FIXa D85N/D203N/F205T (from UniProt P00740 47-191; P00740 227-461) (enzyme)”: the kapp (second-order rate constant for inhibition) in test [1] is 2.7e+06 M⁻¹ s⁻¹. Turning to “FIXa D104N/K106S/N260S (from UniProt P00740 47-191; P00740 227-461) (enzyme)”, the kapp (second-order rate constant for inhibition) in test [1] was 7e+06 M⁻¹ s⁻¹. Substance “FIXa D104N/K106S/R318Y/R338E/E410N (from UniProt P00740 47-191; P00740 227-461) (enzyme)” had a kapp (second-order rate constant for inhibition) in test [1] of 210000 M⁻¹ s⁻¹.

Take “FIXa D203N/F205T (from UniProt P00740 47-191; P00740 227-461) (enzyme)”: the kapp (second-order rate constant for inhibition) in test [1] amounted to 810000 M⁻¹ s⁻¹. The same measure, in the same setting: the result for “FIXa D203N/F205T/E410N (from UniProt P00740 47-191; P00740 227-461) (enzyme)” reads 2e+06 M⁻¹ s⁻¹.

“FIXa D203N/F205T/K228N (from UniProt P00740 47-191; P00740 227-461) (enzyme)” returned a kapp (second-order rate constant for inhibition) in test [1] of 1.1e+06 M⁻¹ s⁻¹. Take “FIXa D203N/F205T/R318Y (from UniProt P00740 47-191; P00740 227-461) (enzyme)”: in test [1], the kapp (second-order rate constant for inhibition) came out at 61000 M⁻¹ s⁻¹. In test [1], “FIXa D203N/F205T/R338A (from UniProt P00740 47-191; P00740 227-461) (enzyme)” gave a kapp (second-order rate constant for inhibition) of 860000 M⁻¹ s⁻¹. “FIXa D203N/F205T/R338E (from UniProt P00740 47-191; P00740 227-461) (enzyme)” returned a kapp (second-order rate constant for inhibition) in test [1] of 360000 M⁻¹ s⁻¹. Same read-out and setting: the result for “FIXa D203N/F205T/R338E/R403E (from UniProt P00740 47-191; P00740 227-461) (enzyme)” reads 2000 M⁻¹ s⁻¹. Still for that read-out and setting: as for “FIXa K228N/R318Y (from UniProt P00740 47-191; P00740 227-461) (enzyme)”, the figure is 1.2e+06 M⁻¹ s⁻¹; as for “FIXa K228N/R338E/R403E (from UniProt P00740 47-191; P00740 227-461) (enzyme)”, 42000 M⁻¹ s⁻¹; as for “FIXa K293A/R338A/R403A (from UniProt P00740 47-191; P00740 227-461) (enzyme)”, 47000 M⁻¹ s⁻¹. Same read-out and setting: as for “FIXa K293A/R403A (from UniProt P00740 47-191; P00740 227-461) (enzyme)”, the figure is 81000 M⁻¹ s⁻¹; as for “FIXa K293E (from UniProt P00740 47-191; P00740 227-461) (enzyme)”, 1.2e+06 M⁻¹ s⁻¹. In test [1], “FIXa K293E/R338E/R403E (from UniProt P00740 47-191; P00740 227-461) (enzyme)” displayed a kapp (second-order rate constant for inhibition) of 31000 M⁻¹ s⁻¹. The same measure, in the same setting: as for “FIXa N260S (from UniProt P00740 47-191; P00740 227-461) (enzyme)”, the figure is 1.1e+06 M⁻¹ s⁻¹.

For “FIXa R312Y (from UniProt P00740 47-191; P00740 227-461) (enzyme)”, the kapp (second-order rate constant for inhibition) in test [1] came out at 230000 M⁻¹ s⁻¹. Same read-out and setting: as for “FIXa R318A (from UniProt P00740 47-191; P00740 227-461) (enzyme)”, the figure is 690000 M⁻¹ s⁻¹; as for “FIXa R318A/R403A (from UniProt P00740 47-191; P00740 227-461) (enzyme)”, 17000 M⁻¹ s⁻¹. Still for that read-out and setting: the result for “FIXa R318E (from UniProt P00740 47-191; P00740 227-461) (enzyme)” reads 16000 M⁻¹ s⁻¹; that for “FIXa R318Y (from UniProt P00740 47-191; P00740 227-461) (enzyme)”, 640000 M⁻¹ s⁻¹; that for “FIXa R318Y/E410N (from UniProt P00740 47-191; P00740 227-461) (enzyme)”, 1.1e+06 M⁻¹ s⁻¹. The same measure, in the same setting: as for “FIXa R318Y/R338E/E410N (from UniProt P00740 47-191; P00740 227-461) (enzyme)”, the figure is 280000 M⁻¹ s⁻¹; as for “FIXa R318Y/R338E/R403E (from UniProt P00740 47-191; P00740 227-461) (enzyme)”, 1200 M⁻¹ s⁻¹; as for “FIXa R338A/R403A (from UniProt P00740 47-191; P00740 227-461) (enzyme)”, 840000 M⁻¹ s⁻¹.

On to “FIXa R338E (from UniProt P00740 47-191; P00740 227-461) (enzyme)”, for which, in test [1], the kapp (second-order rate constant for inhibition) was found to be 270000 M⁻¹ s⁻¹. Same read-out and setting: the result for “FIXa R338E/E410N (from UniProt P00740 47-191; P00740 227-461) (enzyme)” reads 6.3e+06 M⁻¹ s⁻¹. In the case of “FIXa R338E/R403E (from UniProt P00740 47-191; P00740 227-461) (enzyme)”, in test [1], the kapp (second-order rate constant for inhibition) worked out at 68000 M⁻¹ s⁻¹. In test [1], “FIXa R338E/R403E/E410N (from UniProt P00740 47-191; P00740 227-461) (enzyme)” had a kapp (second-order rate constant for inhibition) of 130000 M⁻¹ s⁻¹. As to “FIXa R403A (from UniProt P00740 47-191; P00740 227-461) (enzyme)”, in test [1], the kapp (second-order rate constant for inhibition) was 1.4e+06 M⁻¹ s⁻¹.

The substance “FIXa R403E (from UniProt P00740 47-191; P00740 227-461) (enzyme)” displayed a kapp (second-order rate constant for inhibition) in test [1] of 110000 M⁻¹ s⁻¹.

“FIXa R403E/E410N (from UniProt P00740 47-191; P00740 227-461) (enzyme)” gave a kapp (second-order rate constant for inhibition) in test [1] of 4.8e+06 M⁻¹ s⁻¹. In test [1], “FIXa T148A (from UniProt P00740 47-191; P00740 227-461) (enzyme)” displayed a kapp (second-order rate constant for inhibition) of 1.6e+07 M⁻¹ s⁻¹.

In turn, “FIXa Y155F/R318Y/R338E/R403E (from UniProt P00740 47-191; P00740 227-461) (enzyme)” gave a kapp (second-order rate constant for inhibition) in test [1] of 1000 M⁻¹ s⁻¹. On to “FIXa Y155F/R338E/R403E/E410N (from UniProt P00740 47-191; P00740 227-461) (enzyme)”, for which the kapp (second-order rate constant for inhibition) in test [1] turned out to be 32000 M⁻¹ s⁻¹. On to “FIXa-D104N/K106S/K228N/K247N/N249S/R318Y/R338E/R403E/E410N (from UniProt P00740 47-191; P00740 227-461) (enzyme)”, for which the kapp (apparent second-order rate constant for inhibition) in test [2] stood at 680 M⁻¹ s⁻¹. The same measure, in the same setting: the result for “FIXa-D104N/K106S/K247N/N249S/N260S (from UniProt P00740 47-191; P00740 227-461) (enzyme)” reads 1.7e+06 M⁻¹ s⁻¹. On the same count and under the same terms, the result for “FIXa-D104N/K106S/N260S/R318Y/R338E/R403E/E410N (from UniProt P00740 47-191; P00740 227-461) (enzyme)” reads 2100 M⁻¹ s⁻¹; that for “FIXa-D104N/K106S/R318Y/R338E/T343R/R403E/E410N (from UniProt P00740 47-191; P00740 227-461) (enzyme)”, 9100 M⁻¹ s⁻¹. The same measure, in the same setting: as for “FIXa-K228N/K247N/N249S/R318Y/R338E/R403E/E410N (from UniProt P00740 47-191; P00740 227-461) (enzyme)”, the figure is 1100 M⁻¹ s⁻¹.

The values are drawn from patent publication US20210238260A1.
